Source: patent US20240254204A1
Where two headings read alike, the source gives them in different places.

What was measured:
[1] = target: SARS-CoV-2 Lambda (SARS-CoV-2 Lambda)
SARS-CoV-1 [2] = target: SARS-CoV-1
SARS-CoV-2 Gamma [3] = target: SARS-CoV-2 Gamma
[4] = target: Bat CoV RsSHC014 (SC1r-CoV RsSHC014)
[5] = target: Bat CoV WIV-1 (SC1r-CoV WIV-1)
Bat CoV BANAL-52 [6] = target: Bat CoV BANAL-52
[7] = target: Bat CoV Rs2018B (SC1r-CoV Rs2018B)
SARS-CoV-2 Mu [8] = target: SARS-CoV-2 Mu
[9] = target: SARS-CoV-2 Lambda (SARS-CoV-2 Lambda); remark: listed apart in the source
Bat CoV BANAL-52 [10] = target: Bat CoV BANAL-52; remark: listed apart in the source
SARS-CoV-2 Mu [11] = target: SARS-CoV-2 Mu; remark: listed apart in the source
[12] = target: SARS-CoV-2 RBD (SARS-CoV-2); experiment: sVNT, cPass kit with SARS-CoV-2 RBD-HRP; also: test concentration or dose not given here
[13] = target: SARS-CoV-1 RBD (SARS-CoV); experiment: ELISA, 100 ng coated RBD, anti-human IgG-HRP; also: unit not given here
[14] = target: SARS-CoV-2 RBD (SARS-CoV-2); experiment: ELISA, 100 ng coated RBD, anti-human IgG-HRP; also: unit not given here
[15] = target: SARS-CoV-1 RBD (SARS-CoV); experiment: sVNT, cPass kit format with SARS-CoV-1 RBD-HRP; also: test concentration or dose not given here
SARS-CoV-1 [16] = target: SARS-CoV-1; remark: listed apart in the source
SARS-CoV-2 Gamma [17] = target: SARS-CoV-2 Gamma; remark: listed apart in the source

Substance: S2X259
- IC50 [1]: 0.047 µg/mL
- IC50 (SARS-CoV-1 [2]): 0.871 µg/mL
- IC50 (SARS-CoV-2 Gamma [3]): 0.102 µg/mL
- IC50 [4]: 0.133 µg/mL
- IC50 (Pangolin CoV GD-1): 0.112 µg/mL
- IC50 [5]: 0.117 µg/mL
- IC50 (Bat CoV LYRa11): 0.073 µg/mL
- IC50 (Bat CoV BANAL-52 [6]): 0.097 µg/mL
- IC50 [7]: 0.142 µg/mL
- IC50 (SARS-CoV-2 Mu [8]): 0.067 µg/mL

Substance: LyCoV-1404
- IC50 [9]: 0.077 µg/mL
- IC50 (Bat CoV BANAL-52 [10]): 0.12 µg/mL
- IC50 (SARS-CoV-2 Mu [11]): 0.067 µg/mL

Substance: S309 (Sotrovimab, GSK) (antibody)
- sVNT SARS-CoV-2 (% I) [12]: 39.6%
- Binding SARS-CoV-1 [13]: 1.22
- Binding SARS-CoV-2 [14]: 1.55
- sVNT SARS-CoV-1 (% I) [15]: 36.5%

Substance: CR3022 (antibody)
- sVNT SARS-CoV-2 (% I) [12]: 24.2%
- Binding SARS-CoV-1 [13]: 1.19
- Binding SARS-CoV-2 [14]: 1.46
- sVNT SARS-CoV-1 (% I) [15]: 32.5%

Substance: CR3022
- IC50 (SARS-CoV-1 [16]): 0.397 µg/mL

Substance: S2X259 (VirBiotech) (antibody)
- sVNT SARS-CoV-2 (% I) [12]: 94%
- Binding SARS-CoV-1 [13]: 0.973
- Binding SARS-CoV-2 [14]: 1.73
- sVNT SARS-CoV-1 (% I) [15]: 92.8%

Substance: S309
- IC50 (SARS-CoV-2 Gamma [17]): 0.172 µg/mL
- IC50 (SARS-CoV-2 Delta): 0.199 µg/mL
- IC50 (SARS-CoV-2 Delta Plus): 0.24 µg/mL

Substance: LyCoV-1404 (Eli Lily) (antibody)
- sVNT SARS-CoV-2 (% I) [12]: 0.144%
- Binding SARS-CoV-1 [13]: 1.54
- Binding SARS-CoV-2 [14]: 0.445
- sVNT SARS-CoV-1 (% I) [15]: 94.5%
